Data taken from paper PMC5493754, “Myosin 7 and its adaptors link cadherins to actin” (Nature Communications, 2017).

T1: YFP-Myosin 7b MF2 (human, UniProt Q6PIF6 1605-2116)
T1 construct: Myosin 7b, human, MF2, residues 1605-2116 of UniProt Q6PIF6; pET14-YFP vector; also called ^YFPM7b MF2; source: E. coli (BL21-AI, BL21 (DE3) Rosetta or BL21-Gold (DE3)), purified (Histrap, CaptoQ, gel filtration)
T1 sequence (looked up): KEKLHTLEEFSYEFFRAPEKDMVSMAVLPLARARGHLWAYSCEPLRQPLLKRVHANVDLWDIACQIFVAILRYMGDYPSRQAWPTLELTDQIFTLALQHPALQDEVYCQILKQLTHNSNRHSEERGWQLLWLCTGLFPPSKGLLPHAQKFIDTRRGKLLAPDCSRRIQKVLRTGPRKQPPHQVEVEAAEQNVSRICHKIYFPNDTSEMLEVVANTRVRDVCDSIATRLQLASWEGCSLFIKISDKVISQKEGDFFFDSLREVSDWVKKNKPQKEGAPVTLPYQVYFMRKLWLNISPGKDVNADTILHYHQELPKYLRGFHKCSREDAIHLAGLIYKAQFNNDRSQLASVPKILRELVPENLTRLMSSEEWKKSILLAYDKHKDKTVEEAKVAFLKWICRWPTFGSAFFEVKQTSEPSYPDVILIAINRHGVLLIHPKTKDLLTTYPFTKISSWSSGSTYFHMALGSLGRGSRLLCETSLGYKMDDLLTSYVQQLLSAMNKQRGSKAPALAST

T2: YFP-Full length (FL)-harmonin (harmonin-a1) (human, UniProt Q9Y6N9-1 1-552)
T2 construct: Harmonin-a1 (USH1C), human, residues 1-552 of UniProt Q9Y6N9-1; also called ^YFPFL (isoA); ^YFPFL; source: E. coli BL21 (DE3) Rosetta, purified (Glutathione Sepharose 4B, size-exclusion chromatography)
T2 sequence (looked up): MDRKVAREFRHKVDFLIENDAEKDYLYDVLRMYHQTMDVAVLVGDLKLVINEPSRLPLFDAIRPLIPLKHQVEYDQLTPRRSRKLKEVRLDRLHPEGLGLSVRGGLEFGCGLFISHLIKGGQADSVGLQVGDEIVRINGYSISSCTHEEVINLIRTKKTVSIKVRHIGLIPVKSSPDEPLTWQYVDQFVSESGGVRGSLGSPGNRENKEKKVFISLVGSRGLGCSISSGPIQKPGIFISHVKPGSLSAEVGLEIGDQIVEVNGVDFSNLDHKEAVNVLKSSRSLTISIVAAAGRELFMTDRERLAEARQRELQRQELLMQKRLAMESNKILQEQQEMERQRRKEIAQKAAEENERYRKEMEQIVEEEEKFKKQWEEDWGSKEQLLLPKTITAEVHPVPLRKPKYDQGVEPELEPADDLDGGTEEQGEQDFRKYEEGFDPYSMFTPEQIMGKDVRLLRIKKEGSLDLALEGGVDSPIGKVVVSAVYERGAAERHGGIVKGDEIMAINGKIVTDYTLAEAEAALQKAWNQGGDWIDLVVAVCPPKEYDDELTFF

B1: Myosin 7a MF2 (domain or fragment, human, UniProt Q13402-1 1702-2215, looked up)
chain: TAEPEVRAKPYTLEEFSYDYFRPPPKHTLSRVMVSKARGKDRLWSHTREPLKQALLKKLLGSEELSQEACLAFIAVLKYMGDYPSKRTRSVNELTDQIFEGPLKAEPLKDEAYVQILKQLTDNHIRYSEERGWELLWLCTGLFPPSNILLPHVQRFLQSRKHCPLAIDCLQRLQKALRNGSRKYPPHLVEVEAIQHKTTQIFHKVYFPDDTDEAFEVESSTKAKDFCQNIATRLLLKSSEGFSLFVKIADKVLSVPENDFFFDFVRHLTDWIKKARPIKDGIVPSLTYQVFFMKKLWTTTVPGKDPMADSIFHYYQELPKYLRGYHKCTREEVLQLGALIYRVKFEEDKSYFPSIPKLLRELVPQDLIRQVSPDDWKRSIVAYFNKHAGKSKEEAKLAFLKLIFKWPTFGSAFFEVKQTTEPNFPEILLIAINKYGVSLIDPKTKDILTTHPFTKISNWSSGNTYFHITIGNLVRGSKLLCETSLGYKMDDLLTSYISQMLTAMSKQRGSRSGK
notes: Myosin 7a, human, C-terminal MyTH4-FERM domain (MF2), residues 1702-2215 of UniProt Q13402-1; Thrombin site of the vector replaced by an SSG linker; also called M7a MF2; Myo7a MF2; source: E. coli (BL21-AI, BL21 (DE3) Rosetta or BL21-Gold (DE3)), purified (Histrap, CaptoQ, gel filtration)
B2: Myosin 7b MF2 (domain or fragment, human, UniProt Q6PIF6 1605-2116, looked up)
chain: KEKLHTLEEFSYEFFRAPEKDMVSMAVLPLARARGHLWAYSCEPLRQPLLKRVHANVDLWDIACQIFVAILRYMGDYPSRQAWPTLELTDQIFTLALQHPALQDEVYCQILKQLTHNSNRHSEERGWQLLWLCTGLFPPSKGLLPHAQKFIDTRRGKLLAPDCSRRIQKVLRTGPRKQPPHQVEVEAAEQNVSRICHKIYFPNDTSEMLEVVANTRVRDVCDSIATRLQLASWEGCSLFIKISDKVISQKEGDFFFDSLREVSDWVKKNKPQKEGAPVTLPYQVYFMRKLWLNISPGKDVNADTILHYHQELPKYLRGFHKCSREDAIHLAGLIYKAQFNNDRSQLASVPKILRELVPENLTRLMSSEEWKKSILLAYDKHKDKTVEEAKVAFLKWICRWPTFGSAFFEVKQTSEPSYPDVILIAINRHGVLLIHPKTKDLLTTYPFTKISSWSSGSTYFHMALGSLGRGSRLLCETSLGYKMDDLLTSYVQQLLSAMNKQRGSKAPALAST
notes: also called M7b MF2; Myo7b MF2; source: E. coli (BL21-AI, BL21 (DE3) Rosetta or BL21-Gold (DE3)), purified (Histrap, CaptoQ, gel filtration)

Key:
Conditions in all cases: both partners purified
[1] = biological target: T1, YFP-Myosin 7b MF2; test: MST; YFP-fused partner constant at 100 nM, non-fluorescent protein titrated (16 two-fold dilutions); 20 mM Hepes pH 7.0, 100 mM NaCl, 1 mM EGTA, 0.5 mM TCEP, 0.05% Tween 20; Monolith NT.115
[2] = biological target: B1; test: as above
[3] = biological target: B2; test: as above
[4] = biological target: T2, YFP-Full length (FL)-harmonin …; test: MST; as a1 but 150 mM NaCl (for FL-Harmonin-a); YFP-fused partner constant at 100 nM, non-fluorescent protein titrated
[5] = biological target: T2, YFP-Full length (FL)-harmonin …; test: as above; remark: listed apart in the source

Binder | Kd [2] [µM] | Kd [3] [µM] | further results
Harmonin-a PDZ3c D546R (domain or fragment, human, UniProt Q9Y6N9-1 428-552, looked up, Harmonin-a1 (USH1C), human, residues 428-552 of UniProt Q9Y6N9-1; also called PDZ3c (isoA) D546R; source: E. coli BL21 (DE3) Rosetta, purified similarly as wild type) QDFRKYEEGFDPYSMFTPEQIMGKDVRLLRIKKEGSLDLALEGGVDSPIGKVVVSAVYERGAAERHGGIVKGDEIMAINGKIVTDYTLAEAEAALQKAWNQGGDWIDLVVAVCPPKEYRDELTFF | – | – | Kd [1]: > 300 µM
YFP-Harmonin-a PDZ3c E469A (domain or fragment, human, UniProt Q9Y6N9-1 428-552, looked up, Harmonin-a1 (USH1C), human, residues 428-552 of UniProt Q9Y6N9-1; also called ^YFPPDZ3c (isoA) E469A; PDZ3 E469A; source: E. coli BL21 (DE3) Rosetta, purified similarly as wild type) QDFRKYEEGFDPYSMFTPEQIMGKDVRLLRIKKEGSLDLALAGGVDSPIGKVVVSAVYERGAAERHGGIVKGDEIMAINGKIVTDYTLAEAEAALQKAWNQGGDWIDLVVAVCPPKEYDDELTFF | 5.4 ± 1.5 | 6.11 ± 0.44 | –
YFP-Harmonin-a PDZ3c E469A-I476W (domain or fragment, human, UniProt Q9Y6N9-1 428-552, looked up, Harmonin-a1 (USH1C), human, residues 428-552 of UniProt Q9Y6N9-1; also called ^YFPPDZ3c (isoA) E469A-I476W; source: E. coli BL21 (DE3) Rosetta, purified similarly as wild type) QDFRKYEEGFDPYSMFTPEQIMGKDVRLLRIKKEGSLDLALAGGVDSPWGKVVVSAVYERGAAERHGGIVKGDEIMAINGKIVTDYTLAEAEAALQKAWNQGGDWIDLVVAVCPPKEYDDELTFF | 70.4 ± 7.2 | 38.1 ± 4.9 | –
YFP-Harmonin-a PDZ3c I476W (domain or fragment, human, UniProt Q9Y6N9-1 428-552, looked up, Harmonin-a1 (USH1C), human, residues 428-552 of UniProt Q9Y6N9-1; also called ^YFPPDZ3c (isoA) I476W; source: E. coli BL21 (DE3) Rosetta, purified similarly as wild type) QDFRKYEEGFDPYSMFTPEQIMGKDVRLLRIKKEGSLDLALEGGVDSPWGKVVVSAVYERGAAERHGGIVKGDEIMAINGKIVTDYTLAEAEAALQKAWNQGGDWIDLVVAVCPPKEYDDELTFF | 17.8 ± 1.1 | 18.1 ± 1.4 | –
B1 | – | – | Kd [4]: 2.36 µM
B2 | – | – | Kd [4]: 2.05 ± 0.79 µM
Harmonin NPDZ1.PDZ2 (domain or fragment, human, UniProt Q9Y6N9-1 1-301, looked up, Harmonin-a1 (USH1C), human, N-terminal domain, PDZ1 and PDZ2, residues 1-301 of UniProt Q9Y6N9-1; source: E. coli BL21 (DE3) Rosetta, purified (Glutathione Sepharose 4B, size-exclusion chromatography)) MDRKVAREFRHKVDFLIENDAEKDYLYDVLRMYHQTMDVAVLVGDLKLVINEPSRLPLFDAIRPLIPLKHQVEYDQLTPRRSRKLKEVRLDRLHPEGLGLSVRGGLEFGCGLFISHLIKGGQADSVGLQVGDEIVRINGYSISSCTHEEVINLIRTKKTVSIKVRHIGLIPVKSSPDEPLTWQYVDQFVSESGGVRGSLGSPGNRENKEKKVFISLVGSRGLGCSISSGPIQKPGIFISHVKPGSLSAEVGLEIGDQIVEVNGVDFSNLDHKEAVNVLKSSRSLTISIVAAAGRELFMTDR | – | – | Kd [5]: 3.4 ± 0.1 µM
